The results in this text go back to patent US20260248972A1, “DUAL RECEPTOR TARGETING RADIOLIGANDS AND USES THEREOF RELATED APPLICATIONS” (priority 2022, published 2026).

*1 amine or outer side, *2 acyl side, *3 side chain or, on linkers, in order; H or OH if unused. Where a SMILES comes first, the peptide text is derived from it. Bridges are numbered along the chain shown (N, C = ends). Side-chain parts run from the residue outwards. [ ]: non-standard residue; d: D form. The star is where a group is joined. X1 = CC(C)(C)C(=O)CN1C(=O)[C@H](N*)CN(C2CCCCC2)c2ccccc21; DOTA = O=C(O)CN1CCN(CC(=O)O)CCN(CC(=O)*)CCN(CC(=O)O)CC1; 3Abz = Nc1cccc(C(=O)O)c1; CO = O=C([*:1])[*:2]

The series can be described thus: in vivo. The conditions noted are these: BALB/c nude, mouse, in vivo, iv, total radioactivity. On the procedure: To a 0.5 M NaOAc buffer (20-50 μL, pH=4.5) was added 4 μL of exemplary or comparator compound in DMSO stock solution (2000 μM) and 2 mCi ^177Lu (ITM Isotope Technologies Munich), the resulting mixture was heated to 95° C. for 15 min. The resulting product was analyzed by radio-TLC and radio-HPLC (column: Shim-pack GIST 5 μm 4.6*150 mm; buffer A: 0.2% formic acid H2O; buffer B: 0.1% formic acid acetonitrile; flow rate: 1 mL/min; gradient: 0-5 min: 10% B to 95% B; then 5-8 min: 95% B). The labelled products were used immediately or diluted by a PBS buffer containing freshly added 3 mg/mL ascorbate.
All animal care and experimental procedure were performed by following the animal protocols approved by the ethics committee of China Institute of Radiation Protection. The BALB/c nude mice (Charles River, Beijing) were utilized for these studies. Mice were below 5 per cage in sterile, microisolator cages under temperature- and humidity-controlled conditions with a 12 h light/12 h dark schedule and fed irradiated rodent chow and reverse osmosis (RO) sterile water ad libitum. In preparation for tumor cell inoculations, mice were anesthetized with isoflurane (RWD Life Science Inc.) at an induction rate of 4% and maintained at a rate of 2.5% with 0.4 L oxygen delivered via precision vaporizer and a non-rebreathing apparatus. These mice received subcutaneous rear flank injections of approximately 4×10^6 AR42J cells ([…] pancreatic cancer cell line) suspended in 200 μL of phosphate-buffered saline (PBS) and Matrigel (Corning) (1/1). Xenografted tumors were allowed to grow for ~2-4 weeks post-inoculation and ranged in mass from 0.05 to 0.50 g (average tumor size, 0.20 g). […] The mice were euthanized, and the tissues and organs were excised from the animals at 4, 24 and 72 h post-injection. The tissues and organs were weighed, counted in a PerkinElmer 2480 WIZARD2 γ counter, and the percent injected dose (% ID) and % ID/g of each organ or tissue were calculated.

As usually defined, the tissue uptake is the percentage of the injected dose found per gram of tissue.

Regarding `C[C@@H](O)[C@H](NC(=O)[C@@H]1CSSC[C@H](NC(=O)[C@@H](Cc2ccccc2)NC(=O)COCCOCCNC(=O)[C@H](CCCCNC(=O)CC[C@H](NC(=O)CNC(=O)c2cccc(NC(=O)N[C@@H]3CN(C4CCCCC4)c4ccccc4N(CC(=O)C(C)(C)C)C3=O)c2)C(=O)O)NC(=O)COCCOCCNC(=O)COCCOCCNC(=O)COCCOCCNC(=O)COCCOCCNC(=O)COCCOCCNC(=O)CC[C@H](NC(=O)CN2CCN(CC(=O)O)CCN(CC(=O)O)CCN(CC(=O)O)CC2)C(=O)O)C(=O)N[C@@H](Cc2ccc(O)cc2)C(=O)N[C@H](Cc2c[nH]c3ccccc23)C(=O)N[C@@H](CCCCN)C(=O)N[C@@H]([C@@H](C)O)C(=O)N1)C(=O)O` [Compound I-22, DOTA-gE-OEG-OEG-OEG-OEG-OEG-K(-gE-G-Z360)-OEG-f[CYwKTC]T-OH)], the tissue to tissue ratio at 24 h (T/K Tumor/Kidney ratio) worked out at 0.6; the tissue to tissue ratio at 24 h (T/L Tumor/Liver ratio) is 12; the tissue to tissue ratio at 24 h (T/P Tumor/Pancreas ratio) worked out at 5; the tissue to tissue ratio at 24 h (T/Sp Tumor/Spleen ratio) turned out to be 12; the tissue to tissue ratio at 24 h (T/St Tumor/Stomach ratio) was 7.5. In addition, the tissue uptake at 24 h is 21.9 %ID/g (uptake Kidney); 1.1 %ID/g (uptake Liver); 2.6 %ID/g (uptake Pancreas); 1.1 %ID/g (uptake Spleen); 1.7 %ID/g (uptake Stomach); 12.7 %ID/g (uptake Tumor).
On to `C[C@@H](O)[C@H](NC(=O)[C@@H]1CSSC[C@H](NC(=O)[C@@H](Cc2ccccc2)NC(=O)[C@H](CCCCNC(=O)c2cccc(NC(=O)N[C@@H]3CN(C4CCCCC4)c4ccccc4N(CC(=O)C(C)(C)C)C3=O)c2)NC(=O)COCCOCCNC(=O)CN2CCN(CC(=O)O)CCN(CC(=O)O)CCN(CC(=O)O)CC2)C(=O)N[C@@H](Cc2ccc(O)cc2)C(=O)N[C@H](Cc2c[nH]c3ccccc23)C(=O)N[C@@H](CCCCN)C(=O)N[C@@H]([C@@H](C)O)C(=O)N1)C(=O)O` [Compound I-35, DOTA-OEG-K(Z360)-f[CYwKTC]T-OH], for which the tissue to tissue ratio at 24 h runs as follows: (T/K Tumor/Kidney ratio) 2.9; (T/L Tumor/Liver ratio) 3.5; (T/P Tumor/Pancreas ratio) 19; (T/Sp Tumor/Spleen ratio) 38; (T/St Tumor/Stomach ratio) 5.8. Moreover, the tissue uptake at 24 h reads like this: (uptake Kidney) 6.1 %ID/g; (uptake Liver) 5.06 %ID/g; (uptake Pancreas) 0.96 %ID/g; (uptake Spleen) 0.47 %ID/g; (uptake Stomach) 3.09 %ID/g; (uptake Tumor) 17.8 %ID/g.
As to `C[C@@H](O)[C@H](NC(=O)[C@@H]1CSSC[C@H](NC(=O)[C@@H](Cc2ccccc2)NC(=O)CCOCCOCCOCCNC(=O)[C@H](CCCCNC(=O)c2cccc(NC(=O)N[C@@H]3CN(C4CCCCC4)c4ccccc4N(CC(=O)C(C)(C)C)C3=O)c2)NC(=O)CN2CCN(CC(=O)O)CCN(CC(=O)O)CCN(CC(=O)O)CC2)C(=O)N[C@@H](Cc2ccc(O)cc2)C(=O)N[C@H](Cc2c[nH]c3ccccc23)C(=O)N[C@@H](CCCCN)C(=O)N[C@@H]([C@@H](C)O)C(=O)N1)C(=O)O` [Compound I-38, DOTA-K(Z360)-PEG3-f[CYwKTC]T-OH], the tissue to tissue ratio at 24 h (T/K Tumor/Kidney ratio) came to 1.8; the tissue to tissue ratio at 24 h (T/L Tumor/Liver ratio) was found to be 6.1; the tissue to tissue ratio at 24 h (T/P Tumor/Pancreas ratio) was 18; the tissue to tissue ratio at 24 h (T/Sp Tumor/Spleen ratio) is 72; the tissue to tissue ratio at 24 h (T/St Tumor/Stomach ratio) turned out to be 4.2. Besides, the tissue uptake at 24 h was determined as 7.9 %ID/g (uptake Kidney); 2.3 %ID/g (uptake Liver); 0.8 %ID/g (uptake Pancreas); 0.2 %ID/g (uptake Spleen); 3.4 %ID/g (uptake Stomach); 14.3 %ID/g (uptake Tumor).
For the molecule `C[C@@H](O)[C@H](NC(=O)[C@@H]1CSSC[C@H](NC(=O)[C@@H](Cc2ccccc2)NC(=O)CCOCCOCCOCCOCCOCCOCCNC(=O)[C@H](CCCCNC(=O)c2cccc(NC(=O)N[C@@H]3CN(C4CCCCC4)c4ccccc4N(CC(=O)C(C)(C)C)C3=O)c2)NC(=O)CN2CCN(CC(=O)O)CCN(CC(=O)O)CCN(CC(=O)O)CC2)C(=O)N[C@@H](Cc2ccc(O)cc2)C(=O)N[C@H](Cc2c[nH]c3ccccc23)C(=O)N[C@@H](CCCCN)C(=O)N[C@@H]([C@@H](C)O)C(=O)N1)C(=O)O` [Compound I-40, DOTA-K(Z360)-PEG6-f[CYwKTC]T-OH], the tissue to tissue ratio at 24 h reads like this: (T/K Tumor/Kidney ratio) 2; (T/L Tumor/Liver ratio) 5.7; (T/P Tumor/Pancreas ratio) 59; (T/Sp Tumor/Spleen ratio) 53; (T/St Tumor/Stomach ratio) 10. Further, the tissue uptake at 24 h is, setting by setting: (uptake Kidney) 8.9 %ID/g; (uptake Liver) 3.1 %ID/g; (uptake Pancreas) 0.3 %ID/g; (uptake Spleen) 0.3 %ID/g; (uptake Stomach) 1.8 %ID/g; (uptake Tumor) 17.9 %ID/g.
`C[C@@H](O)[C@H](NC(=O)[C@@H]1CSSC[C@H](NC(=O)[C@@H](Cc2ccccc2)NC(=O)[C@H](CCCCNC(=O)c2cccc(NC(=O)N[C@@H]3CN(C4CCCCC4)c4ccccc4N(CC(=O)C(C)(C)C)C3=O)c2)NC(=O)COCCOCCNC(=O)COCCOCCNC(=O)CN2CCN(CC(=O)O)CCN(CC(=O)O)CCN(CC(=O)O)CC2)C(=O)N[C@@H](Cc2ccc(O)cc2)C(=O)N[C@H](Cc2c[nH]c3ccccc23)C(=O)N[C@@H](CCCCN)C(=O)N[C@@H]([C@@H](C)O)C(=O)N1)C(=O)O` [Compound I-41, DOTA-OEG-OEG-K(Z360)-f[CYwKTC]T-OH]: the tissue to tissue ratio at 24 h turned out to be 1.7 (T/K Tumor/Kidney ratio); 10 (T/L Tumor/Liver ratio); 24 (T/P Tumor/Pancreas ratio); 55 (T/Sp Tumor/Spleen ratio); 4 (T/St Tumor/Stomach ratio). Besides, the tissue uptake at 24 h (uptake Kidney) worked out at 9.7 %ID/g; the tissue uptake at 24 h (uptake Liver) came out at 1.5 %ID/g; the tissue uptake at 24 h (uptake Pancreas) stood at 0.7 %ID/g; the tissue uptake at 24 h (uptake Spleen) was determined as 0.3 %ID/g; the tissue uptake at 24 h (uptake Stomach) amounted to 4 %ID/g; the tissue uptake at 24 h (uptake Tumor) turned out to be 16.1 %ID/g.
`C[C@@H](O)[C@H](NC(=O)[C@@H]1CSSC[C@H](NC(=O)[C@@H](Cc2ccccc2)NC(=O)[C@H](CCCCNC(=O)c2cccc(NC(=O)N[C@@H]3CN(C4CCCCC4)c4ccccc4N(CC(=O)C(C)(C)C)C3=O)c2)NC(=O)CCOCCOCCOCCNC(=O)CN2CCN(CC(=O)O)CCN(CC(=O)O)CCN(CC(=O)O)CC2)C(=O)N[C@@H](Cc2ccc(O)cc2)C(=O)N[C@H](Cc2c[nH]c3ccccc23)C(=O)N[C@@H](CCCCN)C(=O)N[C@@H]([C@@H](C)O)C(=O)N1)C(=O)O` [Compound I-48, DOTA-PEG3-K(Z360)-f[CYwKTC]T-OH]: the tissue to tissue ratio at 24 h runs as follows: (T/K Tumor/Kidney ratio) 1.8; (T/L Tumor/Liver ratio) 2.7; (T/P Tumor/Pancreas ratio) 14; (T/Sp Tumor/Spleen ratio) 19; (T/St Tumor/Stomach ratio) 4. Also, the tissue uptake at 24 h runs as follows: (uptake Kidney) 10.6 %ID/g; (uptake Liver) 7.02 %ID/g; (uptake Pancreas) 1.35 %ID/g; (uptake Spleen) 1.02 %ID/g; (uptake Stomach) 4.75 %ID/g; (uptake Tumor) 18.9 %ID/g.
Take `C[C@@H](O)[C@H](NC(=O)[C@@H]1CSSC[C@H](NC(=O)[C@@H](Cc2ccccc2)NC(=O)[C@H](CCCCNC(=O)c2cccc(NC(=O)N[C@@H]3CN(C4CCCCC4)c4ccccc4N(CC(=O)C(C)(C)C)C3=O)c2)NC(=O)CNC(=O)CNC(=O)CN2CCN(CC(=O)O)CCN(CC(=O)O)CCN(CC(=O)O)CC2)C(=O)N[C@@H](Cc2ccc(O)cc2)C(=O)N[C@H](Cc2c[nH]c3ccccc23)C(=O)N[C@@H](CCCCN)C(=O)N[C@@H]([C@@H](C)O)C(=O)N1)C(=O)O` [Compound I-49, DOTA-G-G-K(Z360)-f[CYwKTC]T-OH] ({DOTA}-GGK([3Abz-CO-X1])[dF]CY[dW]KTCT-OH; disulfide 5-10): the tissue to tissue ratio at 24 h reads like this: (T/K Tumor/Kidney ratio) 1.5; (T/L Tumor/Liver ratio) 1.5; (T/P Tumor/Pancreas ratio) 9.8; (T/Sp Tumor/Spleen ratio) 14; (T/St Tumor/Stomach ratio) 3.2. Moreover, the tissue uptake at 24 h runs as follows: (uptake Kidney) 5.93 %ID/g; (uptake Liver) 5.92 %ID/g; (uptake Pancreas) 0.92 %ID/g; (uptake Spleen) 0.62 %ID/g; (uptake Stomach) 2.77 %ID/g; (uptake Tumor) 8.97 %ID/g.
